Test results reported in publication PMC11077064, “The origin recognition complex requires chromatin tethering by a hypervariable intrinsically disordered region that is functionally conserved from sponge to man”.
Several values for one entry are separate records, joined by “and”; a condition that tells them apart may be missing. Equal values may be shown once.

T1: DmOrc1 IDR (Drosophila melanogaster, UniProt O16810 187-549)
T1 sequence: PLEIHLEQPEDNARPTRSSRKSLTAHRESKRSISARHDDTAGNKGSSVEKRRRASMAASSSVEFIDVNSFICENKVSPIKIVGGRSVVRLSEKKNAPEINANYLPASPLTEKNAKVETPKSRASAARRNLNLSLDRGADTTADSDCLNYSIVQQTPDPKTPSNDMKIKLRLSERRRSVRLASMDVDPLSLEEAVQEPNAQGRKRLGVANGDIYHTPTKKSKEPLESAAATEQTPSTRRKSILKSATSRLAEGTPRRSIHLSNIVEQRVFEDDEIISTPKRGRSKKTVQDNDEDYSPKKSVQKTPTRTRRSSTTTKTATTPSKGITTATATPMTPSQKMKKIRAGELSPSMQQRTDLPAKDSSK

T2: DmOrc1 IDR delta BP (Drosophila melanogaster, UniProt O16810 187-549, del520-533)
T2 sequence: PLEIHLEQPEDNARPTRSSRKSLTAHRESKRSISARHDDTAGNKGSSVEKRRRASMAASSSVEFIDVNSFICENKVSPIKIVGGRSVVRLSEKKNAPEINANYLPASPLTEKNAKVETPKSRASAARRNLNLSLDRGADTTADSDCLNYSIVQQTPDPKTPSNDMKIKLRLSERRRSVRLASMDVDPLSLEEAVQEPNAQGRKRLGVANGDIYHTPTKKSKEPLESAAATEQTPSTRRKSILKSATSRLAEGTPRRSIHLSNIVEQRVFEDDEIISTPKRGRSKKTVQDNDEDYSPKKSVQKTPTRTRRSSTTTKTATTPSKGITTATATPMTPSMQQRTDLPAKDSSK

T3: DmOrc1 IDR delta P (Drosophila melanogaster, UniProt O16810 187-549, S263A;S293A;T304A;T341A;T346A;T401A;T419A;T439A;T463A;S481A;T489A;T505A;T516A;T5 …)
T3 sequence: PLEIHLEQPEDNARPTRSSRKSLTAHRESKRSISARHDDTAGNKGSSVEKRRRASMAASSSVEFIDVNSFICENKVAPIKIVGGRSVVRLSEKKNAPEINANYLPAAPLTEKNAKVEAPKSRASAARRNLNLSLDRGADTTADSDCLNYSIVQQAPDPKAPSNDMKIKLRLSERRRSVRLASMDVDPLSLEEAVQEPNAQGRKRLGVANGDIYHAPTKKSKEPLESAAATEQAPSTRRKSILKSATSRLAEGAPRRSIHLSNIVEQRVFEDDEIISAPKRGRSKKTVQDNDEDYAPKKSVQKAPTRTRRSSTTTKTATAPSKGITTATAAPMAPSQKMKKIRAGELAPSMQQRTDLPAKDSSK

T4: DmOrc1 IDR delta2 (Drosophila melanogaster, UniProt O16810 187-549, del247-306)
T4 sequence: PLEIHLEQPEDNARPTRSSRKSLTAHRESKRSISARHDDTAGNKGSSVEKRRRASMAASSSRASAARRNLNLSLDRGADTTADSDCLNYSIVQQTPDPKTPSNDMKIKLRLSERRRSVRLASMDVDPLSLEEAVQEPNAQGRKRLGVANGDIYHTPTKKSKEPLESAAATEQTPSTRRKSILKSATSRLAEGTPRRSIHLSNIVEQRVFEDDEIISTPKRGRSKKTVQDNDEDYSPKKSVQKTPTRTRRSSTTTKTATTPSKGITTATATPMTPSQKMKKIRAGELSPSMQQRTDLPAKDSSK

T5: DmOrc1 IDR delta1 (Drosophila melanogaster, UniProt O16810 247-549, del187-246)
T5 sequence: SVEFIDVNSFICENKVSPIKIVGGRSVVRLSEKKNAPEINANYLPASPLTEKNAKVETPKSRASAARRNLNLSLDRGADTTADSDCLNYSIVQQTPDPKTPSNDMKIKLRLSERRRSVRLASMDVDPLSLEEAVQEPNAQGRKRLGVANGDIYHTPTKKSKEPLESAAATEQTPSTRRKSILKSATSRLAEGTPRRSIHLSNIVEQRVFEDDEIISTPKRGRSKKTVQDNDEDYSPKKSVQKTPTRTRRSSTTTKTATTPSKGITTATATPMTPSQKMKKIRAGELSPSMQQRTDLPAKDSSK

T6: DmOrc1 IDR delta3 (Drosophila melanogaster, UniProt O16810 187-549, del307-366)
T6 sequence: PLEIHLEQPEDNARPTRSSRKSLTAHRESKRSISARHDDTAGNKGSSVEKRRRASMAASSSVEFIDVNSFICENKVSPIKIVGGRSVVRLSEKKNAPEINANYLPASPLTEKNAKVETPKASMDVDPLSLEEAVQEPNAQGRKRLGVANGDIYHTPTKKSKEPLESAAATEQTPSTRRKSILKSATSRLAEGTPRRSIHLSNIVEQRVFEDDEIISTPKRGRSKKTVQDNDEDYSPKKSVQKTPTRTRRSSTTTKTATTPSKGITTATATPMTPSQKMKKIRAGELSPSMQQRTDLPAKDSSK

T7: DmOrc1 IDR delta4 (Drosophila melanogaster, UniProt O16810 187-549, del367-426)
T7 sequence: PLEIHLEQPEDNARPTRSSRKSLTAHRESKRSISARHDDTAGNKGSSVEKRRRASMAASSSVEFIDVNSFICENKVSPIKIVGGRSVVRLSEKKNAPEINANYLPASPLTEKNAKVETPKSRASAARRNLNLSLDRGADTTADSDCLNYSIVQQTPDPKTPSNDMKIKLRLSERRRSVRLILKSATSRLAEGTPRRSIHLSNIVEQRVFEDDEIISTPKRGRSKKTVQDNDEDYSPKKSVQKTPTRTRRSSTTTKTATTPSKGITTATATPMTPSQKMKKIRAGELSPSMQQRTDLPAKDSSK

T8: DmOrc1 IDR delta5 (Drosophila melanogaster, UniProt O16810 187-549, del427-486)
T8 sequence: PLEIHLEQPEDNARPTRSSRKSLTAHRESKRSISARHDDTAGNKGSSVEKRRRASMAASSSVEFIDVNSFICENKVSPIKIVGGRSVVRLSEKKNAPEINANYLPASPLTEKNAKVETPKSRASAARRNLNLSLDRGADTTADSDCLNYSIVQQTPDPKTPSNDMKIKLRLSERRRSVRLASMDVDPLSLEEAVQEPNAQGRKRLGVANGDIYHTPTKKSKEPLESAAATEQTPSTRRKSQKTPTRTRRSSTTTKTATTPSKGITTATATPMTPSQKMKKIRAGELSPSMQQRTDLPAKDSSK

T9: DmOrc1 IDR delta6 (Drosophila melanogaster, UniProt O16810 187-486, del487-549)
T9 sequence: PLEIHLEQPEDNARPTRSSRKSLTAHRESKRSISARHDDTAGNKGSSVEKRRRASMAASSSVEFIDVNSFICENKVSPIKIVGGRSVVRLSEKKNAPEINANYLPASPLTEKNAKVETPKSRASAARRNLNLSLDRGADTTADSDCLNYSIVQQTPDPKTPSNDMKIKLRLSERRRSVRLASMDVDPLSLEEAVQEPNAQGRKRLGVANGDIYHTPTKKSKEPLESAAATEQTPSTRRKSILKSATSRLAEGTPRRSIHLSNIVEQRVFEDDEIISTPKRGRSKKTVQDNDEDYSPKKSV


What was measured:
[1] = system: AmOrc1 IDR (Acropora millepora); assay: fluorescence polarization; settings: about 100 nM or less; EMSA: 50 mM HEPES pH 7.5, 150 mM K-glutamate, 10% glycerol, 1 mM BME, 2 nM DNA, RT 20 min, 1% agarose; FP: same with 150 or 300 mM K-glutamate, 5 mM MgOAc …
[2] = system: MyOrc1 IDR (Mizuhopecten yessoensis); assay: fluorescence polarization; settings: about 100 nM or less; EMSA: 50 mM HEPES pH 7.5, 150 mM K-glutamate, 10% glycerol, 1 mM BME, 2 nM DNA, RT 20 min, 1% agarose; FP: same with 150 or 300 mM K-glutamate, 5 mM MgOAc …
[3] = system: DgOrc1 IDR (Dimorphilus gyrociliatus); assay: fluorescence polarization; settings: about 100 nM or less; EMSA: 50 mM HEPES pH 7.5, 150 mM K-glutamate, 10% glycerol, 1 mM BME, 2 nM DNA, RT 20 min, 1% agarose; FP: same with 150 or 300 mM K-glutamate, 5 mM MgOAc …
[4] = system: AqOrc1 IDR (Amphimedon queenslandica); assay: fluorescence polarization; settings: about 100 nM or less; EMSA: 50 mM HEPES pH 7.5, 150 mM K-glutamate, 10% glycerol, 1 mM BME, 2 nM DNA, RT 20 min, 1% agarose; FP: same with 150 or 300 mM K-glutamate, 5 mM MgOAc …
[5] = molecular target: T10, DmORC holocomplex (Orc1-6) (Drosophila melanogaster) (UniProt O16810+Q24168+Q24169+Q9Y1B2); assay: fluorescence polarization; settings: EMSA: 50 mM HEPES pH 7.5, 150 mM K-glutamate, 10% glycerol, 1 mM BME, 2 nM DNA, RT 20 min, 1% agarose; FP: same with 150 or 300 mM K-glutamate, 5 mM MgOAc …
[6] = molecular target: DmORC delta1IDR holocomplex Orc1:del248-549 (Drosophila melanogaster) (UniProt O16810+Q24168+Q24169+Q9Y1B2); assay: fluorescence polarization; settings: EMSA: 50 mM HEPES pH 7.5, 150 mM K-glutamate, 10% glycerol, 1 mM BME, 2 nM DNA, RT 20 min, 1% agarose, FP: same with 150 or 300 mM K-glutamate
[7] = molecular target: T10, DmORC holocomplex (Orc1-6) (Drosophila melanogaster); assay: fluorescence polarization; settings: EMSA: 50 mM HEPES pH 7.5, 150 mM K-glutamate, 10% glycerol, 1 mM BME, 2 nM DNA, RT 20 min, 1% agarose; FP: same with 150 or 300 mM K-glutamate, 5 mM MgOAc …; remark: listed apart in the source
DmOrc1 IDR [8] = molecular target: T1, DmOrc1 IDR; assay: EMSA; no ATP; text says FITC, legend Cy5; EMSA: 50 mM HEPES pH 7.5, 150 mM K-glutamate, 10% glycerol, 1 mM BME, 2 nM DNA, RT 20 min, 1% agarose; FP: same with 150 or 300 mM K-glutamate, 5 mM MgOAc, 0 or 1 mM ATP, RT 30 min; settings: protein: recombinant; tags: His6-MBP removed by TEV; blunt (60-bp duplex)
DmOrc1 IDR delta BP = molecular target: T2, DmOrc1 IDR delta BP; assay: EMSA; text says FITC, legend Cy5; EMSA: 50 mM HEPES pH 7.5, 150 mM K-glutamate, 10% glycerol, 1 mM BME, 2 nM DNA, RT 20 min, 1% agarose; FP: same with 150 or 300 mM K-glutamate, 5 mM MgOAc, 0 or 1 mM ATP, RT 30 min; settings: protein: recombinant; tags: His6-MBP removed by TEV; blunt (60-bp duplex)
DmOrc1 IDR delta P = molecular target: T3, DmOrc1 IDR delta P; assay: EMSA; 600 nM; EMSA: 50 mM HEPES pH 7.5, 150 mM K-glutamate, 10% glycerol, 1 mM BME, 2 nM DNA, RT 20 min, 1% agarose; FP: same with 150 or 300 mM K-glutamate, 5 mM MgOAc, 0 or 1 mM ATP, RT 30 min; settings: protein: recombinant; blunt (60-bp duplex)
DmOrc1 IDR delta2 = molecular target: T4, DmOrc1 IDR delta2; assay: EMSA; EMSA: 50 mM HEPES pH 7.5, 150 mM K-glutamate, 10% glycerol, 1 mM BME, 2 nM DNA, RT 20 min, 1% agarose; FP: same with 150 or 300 mM K-glutamate, 5 mM MgOAc, 0 or 1 mM ATP, RT 30 min; settings: protein: recombinant; tags: His6-MBP removed by TEV; blunt (60-bp duplex)
DmOrc1 IDR delta1 = molecular target: T5, DmOrc1 IDR delta1; assay: as above; settings: protein: recombinant; tags: His6-MBP removed by TEV; blunt (60-bp duplex)
DmOrc1 IDR delta3 = molecular target: T6, DmOrc1 IDR delta3; assay: as above; settings: protein: recombinant; tags: His6-MBP removed by TEV; blunt (60-bp duplex)
DmOrc1 IDR delta4 = molecular target: T7, DmOrc1 IDR delta4; assay: as above; settings: protein: recombinant; tags: His6-MBP removed by TEV; blunt (60-bp duplex)
DmOrc1 IDR delta5 = molecular target: T8, DmOrc1 IDR delta5; assay: as above; settings: protein: recombinant; tags: His6-MBP removed by TEV; blunt (60-bp duplex)
DmOrc1 IDR delta6 = molecular target: T9, DmOrc1 IDR delta6; assay: as above; settings: protein: recombinant; tags: His6-MBP removed by TEV; blunt (60-bp duplex)
DmOrc1 IDR [9] = molecular target: T1, DmOrc1 IDR; assay: EMSA; unphosphorylated, compared with pOrc1IDR; label not stated; EMSA: 50 mM HEPES pH 7.5, 150 mM K-glutamate, 10% glycerol, 1 mM BME, 2 nM DNA, RT 20 min, 1% agarose; FP: same with 150 or 300 mM K-glutamate, 5 mM MgOAc, 0 or 1 mM ATP, RT 30 min; settings: protein: recombinant; tags: His6-MBP removed by TEV; blunt (60-bp duplex)

T10 sequence (O16810 whole entry, chain 1 of 4): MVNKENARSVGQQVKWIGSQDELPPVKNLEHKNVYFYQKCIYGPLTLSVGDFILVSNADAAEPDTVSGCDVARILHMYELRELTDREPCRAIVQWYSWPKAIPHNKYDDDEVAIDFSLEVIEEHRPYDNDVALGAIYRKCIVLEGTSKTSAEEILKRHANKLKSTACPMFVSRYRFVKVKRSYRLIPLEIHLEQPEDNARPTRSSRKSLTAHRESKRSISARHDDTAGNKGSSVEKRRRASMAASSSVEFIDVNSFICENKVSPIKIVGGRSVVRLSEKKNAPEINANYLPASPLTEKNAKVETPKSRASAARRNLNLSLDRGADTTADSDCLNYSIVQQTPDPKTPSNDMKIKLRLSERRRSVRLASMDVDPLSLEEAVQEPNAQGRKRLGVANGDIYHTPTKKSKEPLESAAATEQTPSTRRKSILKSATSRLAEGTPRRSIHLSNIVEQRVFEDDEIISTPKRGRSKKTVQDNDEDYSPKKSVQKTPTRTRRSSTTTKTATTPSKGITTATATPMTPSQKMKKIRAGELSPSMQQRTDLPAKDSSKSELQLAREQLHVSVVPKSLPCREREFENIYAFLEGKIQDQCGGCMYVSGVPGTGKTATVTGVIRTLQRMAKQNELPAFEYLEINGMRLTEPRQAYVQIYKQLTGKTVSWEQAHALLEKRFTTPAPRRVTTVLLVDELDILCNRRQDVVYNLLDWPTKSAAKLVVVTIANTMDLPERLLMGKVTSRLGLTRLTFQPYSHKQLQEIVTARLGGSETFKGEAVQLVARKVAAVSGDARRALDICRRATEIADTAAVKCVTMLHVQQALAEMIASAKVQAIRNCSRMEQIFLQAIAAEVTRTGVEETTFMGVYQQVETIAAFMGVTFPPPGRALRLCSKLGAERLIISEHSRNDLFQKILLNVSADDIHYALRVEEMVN
T10 sequence (Q24168 whole entry, chain 2 of 4): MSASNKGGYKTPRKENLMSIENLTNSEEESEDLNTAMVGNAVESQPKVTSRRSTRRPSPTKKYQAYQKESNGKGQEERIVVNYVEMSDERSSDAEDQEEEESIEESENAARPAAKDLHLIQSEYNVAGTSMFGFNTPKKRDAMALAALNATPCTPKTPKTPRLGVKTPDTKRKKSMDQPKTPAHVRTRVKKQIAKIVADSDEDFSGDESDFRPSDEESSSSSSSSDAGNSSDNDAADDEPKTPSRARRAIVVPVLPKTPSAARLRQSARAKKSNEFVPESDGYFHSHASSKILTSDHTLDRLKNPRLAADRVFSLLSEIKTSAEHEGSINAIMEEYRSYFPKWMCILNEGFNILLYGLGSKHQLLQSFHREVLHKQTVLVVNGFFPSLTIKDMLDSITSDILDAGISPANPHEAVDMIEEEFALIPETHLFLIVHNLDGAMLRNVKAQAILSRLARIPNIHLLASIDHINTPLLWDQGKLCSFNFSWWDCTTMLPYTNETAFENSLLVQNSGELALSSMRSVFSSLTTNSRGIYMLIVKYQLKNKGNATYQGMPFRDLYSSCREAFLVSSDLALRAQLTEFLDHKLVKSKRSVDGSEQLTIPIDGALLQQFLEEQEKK
T10 sequence (Q24169 whole entry, chain 3 of 4): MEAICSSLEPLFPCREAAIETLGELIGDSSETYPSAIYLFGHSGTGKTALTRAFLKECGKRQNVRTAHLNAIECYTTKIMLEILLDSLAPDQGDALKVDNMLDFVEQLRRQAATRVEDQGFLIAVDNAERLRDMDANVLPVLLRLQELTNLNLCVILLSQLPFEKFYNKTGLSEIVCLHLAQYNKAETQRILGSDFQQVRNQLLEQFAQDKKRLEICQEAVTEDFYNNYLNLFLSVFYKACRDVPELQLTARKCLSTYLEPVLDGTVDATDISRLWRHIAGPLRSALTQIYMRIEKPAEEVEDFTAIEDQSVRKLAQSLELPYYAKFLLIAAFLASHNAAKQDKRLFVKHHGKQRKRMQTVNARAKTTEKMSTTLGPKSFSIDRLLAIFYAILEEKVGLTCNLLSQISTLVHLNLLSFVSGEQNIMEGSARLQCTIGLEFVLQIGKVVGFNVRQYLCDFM
T10 sequence (Q9Y1B2 whole entry, chain 4 of 4): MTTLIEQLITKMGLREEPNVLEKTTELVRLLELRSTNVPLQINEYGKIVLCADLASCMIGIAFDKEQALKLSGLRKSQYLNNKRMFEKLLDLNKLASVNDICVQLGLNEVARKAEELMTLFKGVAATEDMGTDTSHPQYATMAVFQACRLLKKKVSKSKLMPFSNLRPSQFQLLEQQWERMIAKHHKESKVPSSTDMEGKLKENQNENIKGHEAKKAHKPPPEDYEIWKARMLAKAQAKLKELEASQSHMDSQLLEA
DmORC delta1IDR holocomplex Orc1:del248-549 (Drosophila melanogaster), sequence (O16810 whole entry, stated change not applied, chain 1 of 4): as the sequence (O16810 whole entry, chain 1 of 4) above
DmORC delta1IDR holocomplex Orc1:del248-549 (Drosophila melanogaster), sequence (Q24168 whole entry, stated change not applied, chain 2 of 4): as the sequence (Q24168 whole entry, chain 2 of 4) above
DmORC delta1IDR holocomplex Orc1:del248-549 (Drosophila melanogaster), sequence (Q24169 whole entry, stated change not applied, chain 3 of 4): as the sequence (Q24169 whole entry, chain 3 of 4) above
DmORC delta1IDR holocomplex Orc1:del248-549 (Drosophila melanogaster), sequence (Q9Y1B2 whole entry, stated change not applied, chain 4 of 4): as the sequence (Q9Y1B2 whole entry, chain 4 of 4) above

Molecule	Kd [1]	Kd [2]	Kd [3]	Kd [4]	Kd [5]	Kd ([6]; 5 mM MgOAc …)	Kd ([6]; no ATP, 150 mM KGlut, 5 mM MgOAc, severely impaired)	Kd [7]	Kd (DmOrc1 IDR [8])	Kd (DmOrc1 IDR delta BP)	binding result (DmOrc1 IDR delta P)	Kd (DmOrc1 IDR delta2)	Kd (DmOrc1 IDR delta1)	Kd (DmOrc1 IDR delta3)	Kd (DmOrc1 IDR delta4)	Kd (DmOrc1 IDR delta5)	Kd (DmOrc1 IDR delta6)	Kd (DmOrc1 IDR [9])
GAAGCTAGACTTAGGTGTCATATTGAACCTACTATGCCGAACTAGTTACGAGCTATAACC (double strand) [FITC-dsDNA 60 bp]	100 nM	100 nM	100 nM	100 nM	7 nM	19 nM	> 1000 nM	6 nM and 34 nM	–	–	–	–	–	–	–	–	–	–
Cy5-dsDNA 60 bp (dsDNA) DNA 1: GAAGCTAGACTTAGGTGTCATATTGAACCTACTATGCCGAACTAGTTACGAGCTATAACC DNA 2: GGTTATAGCTCGTAACTAGTTCGGCATAGTAGGTTCAATATGACACCTAAGTCTAGCTTC	–	–	–	–	–	–	–	–	15 ± 4 nM	8 ± 2 nM	binds	< 100 nM	< 100 nM	< 100 nM	62 ± 26 nM	< 100 nM	< 100 nM	21 nM
